From patent publication US20200330553A1 (BRIGHAM AND WOMEN S HOSPITAL, published 2020)

What was measured:
[1] = biological target: the molecule itself; assay: MG-132, anti-FLAG immunoprecipitation, non-reducing western blot
Method: FLAG-sortilin Full and ECD+TMD forms homodimers and multimers. Empty vector was used as control. […] MG-132 increased FLAG-sortilin ICD+TMD in a time and concentration-dependent manner. […] Monomers, homodimers and multimers are abbreviated as MO, D and MU, respectively. IB, immunoblotting.
Cells or EVs were lysed in IP lysis buffer. Anti-FLAG M2 antibody (5 μg) or mouse IgG (5 lig, R&D Systems, Cat#MAB002, Lot# IX2415091) were incubated with Dynabeads with Protein G (Thermo Fisher Scientific Inc., Cat#10004D) by rotation for overnight at 4° C. Cell lysate was incubated for 4 hours at 4° C. under rotating conditions. The bead-antibody-protein complex was washed with PBS 3 times. Then, Laemmli buffer was added to the precipitates for SDS-PAGE.

[2] = biological target: the molecule itself; assay: non-reducing western blot, HEK293 cells and EVs
Text: Next, the intermolecular disulfide bond was examined in the intracellular domain. Since sortilin has only one cysteine (Cys⁷⁸³) in the intracellular domain, the cysteine was expected to form an intermolecular disulfide bond for dimerization in the intracellular domain. Cys⁷⁸³ was replaced by alanine (C783A) in 6×His-sortilin ICD+TMD and FLAG-sortilin Full (FIG. 5A). […] The homodimers of low molecular weight were mainly transported to EVs, while homodimers of high molecular weight and multimers were mainly not transported to EVs (FIG. 5D). […] Since Cys⁷⁸³ was reported to be palmitoylated (22), the connection between palmitoylation and intermolecular disulfide bond was studied by incubating FLAG-sortilin HEK293 cells with an inhibitor of palmitoylation, 2-fluoropalmitic acid (2-FPA) (22), which increased only homodimers of lower molecular size in the cells (FIG. 5E).
Cells, EVs and the supernatant of culture medium were lysed with IP lysis buffer (Thermo Fisher Scientific Inc., Cat#87787) containing protease inhibitor (Roche Diagnostics, Cat#04693159001). Protein concentration was measured using the bicinchoninic acid (BCA) method (Thermo Fisher Scientific Inc., Cat#23225). Laemmli buffer (Boston Bioproduct; non-reducing, Cat#BP-110NR; reducing, Cat#BP-111R) was added to the lysate, and boiled at 95° C. for 5 minutes.

Row | Protein | binding result [1] | binding result [2]
1 | FLAG-sortilin ICD+TMD (receptor, written as the form after propeptide cleavage) SAPDYKDDDDKNSVPIILAIVGLMLVTVVAGVLIVKKYVCGGRFLVHRYSVLQQHAEANGVDGVDALDTASHTNKSGYHDDSDEDLLE | binds | –
2 | FLAG-sortilin C783A (receptor, also called C783A mutant) SAPDYKDDDDKGEDEECGRVRDFVAKLANNTHQHVFDDLRGSVSLSWVGDSTGVILVLTTFHVPLVIMTFGQSKLYRSEDYGKNFKDITDLINNTFIRTEFGMAIGPENSGKVVLTAEVSGGSRGGRIFRSSDFAKNFVQTDLPFHPLTQMMYSPQNSDYLLALSTENGLWVSKNFGGKWEEIHKAVCLAKWGSDNTIFFTTYANGSCKADLGALELWRTSDLGKSFKTIGVKIYSFGLGGRFLFASVMADKDTTRRIHVSTDQGDTWSMAQLPSVGQEQFYSILAANDDMVFMHVDEPGDTGFGTIFTSDDRGIVYSKSLDRHLYTTTGGETDFTNVTSLRGVYITSVLSEDNSIQTMITFDQGGRWTHLRKPENSECDATAKNKNECSLHIHASYSISQKLNVPMAPLSEPNAVGIVIAHGSVGDAISVMVPDVYISDDGGYSWTKMLEGPHYYTILDSGGIIVAIEHSSRPINVIKFSTDEGQCWQTYTFTRDPIYFTGLASEPGARSMNISIWGFTESFLTSQWVSYTIDFKDILERNCEEKDYTIWLAHSTDPEDYEDGCILGYKEQFLRLRKSSMCQNGRDYVVTKQPSICLCSLEDFLCDFGYYRPENDSKCVEQPELKGHDLEFCLYGREEHLTTNGYRKIPGDKCQGGVNPVREVKDLKKKCTSNFLSPEKQNSKSNSVPIILAIVGLMLVTVVAGVLIVKKYVAGGRFLVHRYSVLQQHAEANGVDGVDALDTASHTNKSGYHDDSDEDLLE | – | binds
